Assay results as given in patent publication US20210388087A1 (Chugai, published 2021).

B1: CE115HA000 S74A one-arm antibody (antibody, human IgG1, kappa, L234A L235A, N297A, name in Kabat numbering)
heavy: QVQLVESGGGVVQPGRSLRLSCAASGFTFSNAWMHWVRQAPGKGLEWVAQIKAKSNNYATYYAESVKGRFTISRDDAKNSLYLQMNSLKTEDTAVYYCRYVHYGAYYGVDAWGQGTTVTVSSASTKGPSVFPLAPSSKSTSGGTAALGCLVKDYFPEPVTVSWNSGALTSGVHTFPAVLQSSGLYSLSSVVTVPSSSLGTQTYICNVNHKPSNTKVDKKVEPKSCDKTHTCPPCPAPEAAGGPSVFLFPPKPKDTLMISRTPEVTCVVVDVSHEDPEVKFNWYVDGVEVHNAKTKPREEQYASTYRVVSVLTVLHQDWLNGKEYKCKVSNKALPAPIEKTISKAKGQPREPQVYTLPPSRCELTKNQVSLSCAVKGFYPSDIAVEWESNGQPENNYKTTPPVLDSDGSFFLVSKLTVDKSRWQQGNVFSCSVMHEALHNHYTQKSLSLSPDYKDDDDK
chain: EPKSSDKTHTCPPCPAPELLGGPSVFLFPPKPKDTLMISRTPEVTCVVVDVSHEDPEVKFNWYVDGVEVHNAKTKPREEQYNSTYRVVSVLTVLHQDWLNGKEYKCKVSNKALPAPIEKTISKAKGQPREPQVCTLPPSRDELTKNQVSLWCLVKGFYPSDIAVEWESNGQPENNYKTTPPVLDSDGSFFLYSKLTVDKSRWQQGNVFSCSVMHEALHNRYTQKSLSLSP
light: DIVMTQSPLSLPVTPGEPASISCRSSQSLVHSNRNTYLHWYQQKPGQAPRLLIYKVSNRFSGVPDRFSGSGSGTDFTLKISRVEAEDVGVYYCGQGTQVPYTFGQGTKLEIKRTVAAPSVFIFPPSDEQLKSGTASVVCLLNNFYPREAKVQWKVDNALQSGNSQESVTEQDSKDSTYSLSSTLTLSKADYEKHKVYACEVTHQGLSSPVTKSFNRGEC
B2: CE115HA000 S74P one-arm antibody (antibody, human IgG1, kappa, L234A L235A, N297A, name in Kabat numbering)
heavy: QVQLVESGGGVVQPGRSLRLSCAASGFTFSNAWMHWVRQAPGKGLEWVAQIKAKSNNYATYYAESVKGRFTISRDDPKNSLYLQMNSLKTEDTAVYYCRYVHYGAYYGVDAWGQGTTVTVSSASTKGPSVFPLAPSSKSTSGGTAALGCLVKDYFPEPVTVSWNSGALTSGVHTFPAVLQSSGLYSLSSVVTVPSSSLGTQTYICNVNHKPSNTKVDKKVEPKSCDKTHTCPPCPAPEAAGGPSVFLFPPKPKDTLMISRTPEVTCVVVDVSHEDPEVKFNWYVDGVEVHNAKTKPREEQYASTYRVVSVLTVLHQDWLNGKEYKCKVSNKALPAPIEKTISKAKGQPREPQVYTLPPSRCELTKNQVSLSCAVKGFYPSDIAVEWESNGQPENNYKTTPPVLDSDGSFFLVSKLTVDKSRWQQGNVFSCSVMHEALHNHYTQKSLSLSPDYKDDDDK
chain: EPKSSDKTHTCPPCPAPELLGGPSVFLFPPKPKDTLMISRTPEVTCVVVDVSHEDPEVKFNWYVDGVEVHNAKTKPREEQYNSTYRVVSVLTVLHQDWLNGKEYKCKVSNKALPAPIEKTISKAKGQPREPQVCTLPPSRDELTKNQVSLWCLVKGFYPSDIAVEWESNGQPENNYKTTPPVLDSDGSFFLYSKLTVDKSRWQQGNVFSCSVMHEALHNRYTQKSLSLSP
light: DIVMTQSPLSLPVTPGEPASISCRSSQSLVHSNRNTYLHWYQQKPGQAPRLLIYKVSNRFSGVPDRFSGSGSGTDFTLKISRVEAEDVGVYYCGQGTQVPYTFGQGTKLEIKRTVAAPSVFIFPPSDEQLKSGTASVVCLLNNFYPREAKVQWKVDNALQSGNSQESVTEQDSKDSTYSLSSTLTLSKADYEKHKVYACEVTHQGLSSPVTKSFNRGEC
B3: CE115HA000 S77T one-arm antibody (antibody, human IgG1, kappa, L234A L235A, N297A, name in Kabat numbering)
heavy: QVQLVESGGGVVQPGRSLRLSCAASGFTFSNAWMHWVRQAPGKGLEWVAQIKAKSNNYATYYAESVKGRFTISRDDSKNTLYLQMNSLKTEDTAVYYCRYVHYGAYYGVDAWGQGTTVTVSSASTKGPSVFPLAPSSKSTSGGTAALGCLVKDYFPEPVTVSWNSGALTSGVHTFPAVLQSSGLYSLSSVVTVPSSSLGTQTYICNVNHKPSNTKVDKKVEPKSCDKTHTCPPCPAPEAAGGPSVFLFPPKPKDTLMISRTPEVTCVVVDVSHEDPEVKFNWYVDGVEVHNAKTKPREEQYASTYRVVSVLTVLHQDWLNGKEYKCKVSNKALPAPIEKTISKAKGQPREPQVYTLPPSRCELTKNQVSLSCAVKGFYPSDIAVEWESNGQPENNYKTTPPVLDSDGSFFLVSKLTVDKSRWQQGNVFSCSVMHEALHNHYTQKSLSLSPDYKDDDDK
chain: EPKSSDKTHTCPPCPAPELLGGPSVFLFPPKPKDTLMISRTPEVTCVVVDVSHEDPEVKFNWYVDGVEVHNAKTKPREEQYNSTYRVVSVLTVLHQDWLNGKEYKCKVSNKALPAPIEKTISKAKGQPREPQVCTLPPSRDELTKNQVSLWCLVKGFYPSDIAVEWESNGQPENNYKTTPPVLDSDGSFFLYSKLTVDKSRWQQGNVFSCSVMHEALHNRYTQKSLSLSP
light: DIVMTQSPLSLPVTPGEPASISCRSSQSLVHSNRNTYLHWYQQKPGQAPRLLIYKVSNRFSGVPDRFSGSGSGTDFTLKISRVEAEDVGVYYCGQGTQVPYTFGQGTKLEIKRTVAAPSVFIFPPSDEQLKSGTASVVCLLNNFYPREAKVQWKVDNALQSGNSQESVTEQDSKDSTYSLSSTLTLSKADYEKHKVYACEVTHQGLSSPVTKSFNRGEC
B4: CE115HA000 T28D one-arm antibody (antibody, human IgG1, kappa, L234A L235A, N297A, name in Kabat numbering)
heavy: QVQLVESGGGVVQPGRSLRLSCAASGFDFSNAWMHWVRQAPGKGLEWVAQIKAKSNNYATYYAESVKGRFTISRDDSKNSLYLQMNSLKTEDTAVYYCRYVHYGAYYGVDAWGQGTTVTVSSASTKGPSVFPLAPSSKSTSGGTAALGCLVKDYFPEPVTVSWNSGALTSGVHTFPAVLQSSGLYSLSSVVTVPSSSLGTQTYICNVNHKPSNTKVDKKVEPKSCDKTHTCPPCPAPEAAGGPSVFLFPPKPKDTLMISRTPEVTCVVVDVSHEDPEVKFNWYVDGVEVHNAKTKPREEQYASTYRVVSVLTVLHQDWLNGKEYKCKVSNKALPAPIEKTISKAKGQPREPQVYTLPPSRCELTKNQVSLSCAVKGFYPSDIAVEWESNGQPENNYKTTPPVLDSDGSFFLVSKLTVDKSRWQQGNVFSCSVMHEALHNHYTQKSLSLSPDYKDDDDK
chain: EPKSSDKTHTCPPCPAPELLGGPSVFLFPPKPKDTLMISRTPEVTCVVVDVSHEDPEVKFNWYVDGVEVHNAKTKPREEQYNSTYRVVSVLTVLHQDWLNGKEYKCKVSNKALPAPIEKTISKAKGQPREPQVCTLPPSRDELTKNQVSLWCLVKGFYPSDIAVEWESNGQPENNYKTTPPVLDSDGSFFLYSKLTVDKSRWQQGNVFSCSVMHEALHNRYTQKSLSLSP
light: DIVMTQSPLSLPVTPGEPASISCRSSQSLVHSNRNTYLHWYQQKPGQAPRLLIYKVSNRFSGVPDRFSGSGSGTDFTLKISRVEAEDVGVYYCGQGTQVPYTFGQGTKLEIKRTVAAPSVFIFPPSDEQLKSGTASVVCLLNNFYPREAKVQWKVDNALQSGNSQESVTEQDSKDSTYSLSSTLTLSKADYEKHKVYACEVTHQGLSSPVTKSFNRGEC

What follows are binders tested against T1, CD3 epsilon homodimer protein (UniProt P07766 23-126) (assay: SPR (Biacore T200), CD3 epsilon homodimer on CM4 chip, one-arm antibody as analyte, 25 C;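 also: homodimer attached to the sensor surface via amine coupling, HBS-EP+ used as running buffer during binding runs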).
T1 construct: immobilized on Sensor chip CM4 by amine coupling; also called CD3 (CD3 epsilon)
T1 sequence (P07766 23-126): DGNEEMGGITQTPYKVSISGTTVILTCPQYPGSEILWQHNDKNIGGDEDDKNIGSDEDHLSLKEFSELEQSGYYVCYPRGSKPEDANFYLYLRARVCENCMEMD

First: B1
Second: B2
The “ratio of amounts bound (altered form / CE115HA000)” value of the first is higher: 1.05 for the first, 0.91 for the second.

First: B3
Second: B4
The “ratio of amounts bound (altered form / CE115HA000)” value of the first is higher: 0.9 for the first, 0.56 for the second.
